Source: patent publication US7452534

Molecular target: human CD4 on cells (human) (UniProt P01730)
Experiment: cell-based or functional assay

- MLR IL-2 Production (IC50): 0.02 µg/mL
- MLR Proliferation (IC50): 0.02 µg/mL
Substance: CE9γ4λK, chimeric anti-CD4 antibody with human gamma 4 heavy chain constant domain and human kappa light chain constant region
